Source: US20210277061A1 (UNIVERSITY OF HONG KONG, published 2021)
No end group written: not given here. *: point of attachment. Oxazole(5-CO) = O=C(c1cnco1)*; Crotonyl(E) = C/C=C/C(=O)*; 2Furoyl = O=C(c1ccco1)*; Cbz = O=C(OCc1ccccc1)*

T1: AF9 YEATS domain, His-AF9 (1-138) (human, UniProt P42568 1-138)
T1 construct: Expressed in E. coli; not shown: His tag
T1 sequence (looked up): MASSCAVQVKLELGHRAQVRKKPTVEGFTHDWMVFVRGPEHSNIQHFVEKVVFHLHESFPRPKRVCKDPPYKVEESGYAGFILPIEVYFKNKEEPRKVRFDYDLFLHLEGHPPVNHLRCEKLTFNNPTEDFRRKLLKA

T2: ENL YEATS domain, His-SUMO-ENL (1-138) (human, UniProt Q03111 1-138)
T2 construct: Expressed in E. coli; not shown: His-SUMO tag
T2 sequence (looked up): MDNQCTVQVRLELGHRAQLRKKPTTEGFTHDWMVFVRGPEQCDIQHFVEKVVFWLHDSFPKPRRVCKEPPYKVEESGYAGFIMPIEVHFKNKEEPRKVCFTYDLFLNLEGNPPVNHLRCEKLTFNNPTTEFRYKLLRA

B1: compound 7 (XL-07) (peptide)
peptide: KQTARK(2Furoyl)STGG-NH2
modifications: N-terminus assumed
SMILES: C[C@H](NC(=O)[C@@H](NC(=O)[C@H](CCC(N)=O)NC(=O)[C@@H](N)CCCCN)[C@@H](C)O)C(=O)N[C@@H](CCCNC(=N)N)C(=O)N[C@@H](CCCCNC(=O)c1ccco1)C(=O)N[C@@H](CO)C(=O)N[C@H](C(=O)NCC(=O)NCC(N)=O)[C@@H](C)O
notes: also called 4.7
B2: compound 13 (XL-13) (peptide)
peptide: KQTARK(Oxazole(5-CO))STGG-NH2
modifications: N-terminus assumed
SMILES: C[C@H](NC(=O)[C@@H](NC(=O)[C@H](CCC(N)=O)NC(=O)[C@@H](N)CCCCN)[C@@H](C)O)C(=O)N[C@@H](CCCNC(=N)N)C(=O)N[C@@H](CCCCNC(=O)c1cnco1)C(=O)N[C@@H](CO)C(=O)N[C@H](C(=O)NCC(=O)NCC(N)=O)[C@@H](C)O
notes: also called 4.13
B3: compound 85 (positive control), H3K9cr peptide (peptide)
peptide: KQTARK(Crotonyl(E))STGG-NH2
modifications: N-terminus assumed
SMILES: C/C=C/C(=O)NCCCC[C@H](NC(=O)[C@H](CCCNC(=N)N)NC(=O)[C@H](C)NC(=O)[C@@H](NC(=O)[C@H](CCC(N)=O)NC(=O)[C@@H](N)CCCCN)[C@@H](C)O)C(=O)N[C@@H](CO)C(=O)N[C@H](C(=O)NCC(=O)NCC(N)=O)[C@@H](C)O
B4: compound 43 (competitor R8-K) (peptide)
peptide: Cbz-QTAKK(2Furoyl)-NH2
SMILES: C[C@H](NC(=O)[C@@H](NC(=O)[C@H](CCC(N)=O)NC(=O)OCc1ccccc1)[C@@H](C)O)C(=O)N[C@@H](CCCCN)C(=O)N[C@@H](CCCCNC(=O)c1ccco1)C(N)=O
notes: Full structure only as drawing
B5: compound 45 (competitor R8-Q) (peptide)
peptide: Cbz-QTAQK(2Furoyl)-NH2
SMILES: C[C@H](NC(=O)[C@@H](NC(=O)[C@H](CCC(N)=O)NC(=O)OCc1ccccc1)[C@@H](C)O)C(=O)N[C@@H](CCC(N)=O)C(=O)N[C@@H](CCCCNC(=O)c1ccco1)C(N)=O
notes: as for B4
B6: compound 47 (competitor A7-L) (peptide)
peptide: Cbz-QTLRK(2Furoyl)-NH2
SMILES: CC(C)C[C@H](NC(=O)[C@@H](NC(=O)[C@H](CCC(N)=O)NC(=O)OCc1ccccc1)[C@@H](C)O)C(=O)N[C@@H](CCCNC(=N)N)C(=O)N[C@@H](CCCCNC(=O)c1ccco1)C(N)=O
notes: as for B4
B7: compound 49 (competitor A7-W) (peptide)
peptide: Cbz-QTWRK(2Furoyl)-NH2
SMILES: C[C@@H](O)[C@H](NC(=O)[C@H](CCC(N)=O)NC(=O)OCc1ccccc1)C(=O)N[C@@H](Cc1c[nH]c2ccccc12)C(=O)N[C@@H](CCCNC(=N)N)C(=O)N[C@@H](CCCCNC(=O)c1ccco1)C(N)=O
notes: as for B4
B8: compound 53 (competitor T6-A) (peptide)
peptide: Cbz-QAARK(2Furoyl)-NH2
SMILES: C[C@H](NC(=O)[C@H](C)NC(=O)[C@H](CCC(N)=O)NC(=O)OCc1ccccc1)C(=O)N[C@@H](CCCNC(=N)N)C(=O)N[C@@H](CCCCNC(=O)c1ccco1)C(N)=O
notes: as for B4
B9: compound 55 (competitor T6-S) (peptide)
peptide: Cbz-QSARK(2Furoyl)-NH2
SMILES: C[C@H](NC(=O)[C@H](CO)NC(=O)[C@H](CCC(N)=O)NC(=O)OCc1ccccc1)C(=O)N[C@@H](CCCNC(=N)N)C(=O)N[C@@H](CCCCNC(=O)c1ccco1)C(N)=O
notes: as for B4
B10: compound 74 (competitor Cbz-4) (peptide)
peptide: QTARK(2Furoyl)-NH2
modifications: not fully specified (N-terminus)
notes: as for B4
B11: peptide control (competitor control) (peptide)
peptide: Cbz-QTARK(2Furoyl)-NH2
SMILES: C[C@H](NC(=O)[C@@H](NC(=O)[C@H](CCC(N)=O)NC(=O)OCc1ccccc1)[C@@H](C)O)C(=O)N[C@@H](CCCNC(=N)N)C(=O)N[C@@H](CCCCNC(=O)c1ccco1)C(N)=O
B12: compound 6 (XL-06) (peptide)
peptide: KQTARK(2‑pyrimidinecarbonyl)STGG-NH2
notes: also called 4.6
B13: compound 24 (XL-07h) (peptide)
peptide: H-QTARK(2Furoyl)-NH2
SMILES: C[C@H](NC(=O)[C@@H](NC(=O)[C@@H](N)CCC(N)=O)[C@@H](C)O)C(=O)N[C@@H](CCCNC(=N)N)C(=O)N[C@@H](CCCCNC(=O)c1ccco1)C(N)=O
notes: also called 4.7h
B14: compound 8 (XL-08) (peptide)
peptide: KQTARK(3‑furancarbonyl)STGG-NH2
notes: also called 4.8
B15: compound 9 (XL-09) (peptide)
peptide: KQTARK(Arg)STGG-NH2
modifications: also: Lys6 acylated with group R, shown only as a drawing
notes: also called 4.9
B16: compound 10 (XL-10) (peptide)
peptide: KQTARKSTGG-NH2
modifications: not fully specified (residue 6); also: Lys6 acylated with group R, structure drawing only
notes: also called 4.10
B17: compound 11 (XL-11) (peptide)
peptide: KQTARKSTGG-NH2
modifications: not fully specified (residue 6); also: Lys6 acylated with group R, structure drawing only
notes: also called 4.11
B18: compound 12 (XL-12) (peptide)
peptide: KQTARKSTGG-NH2
modifications: not fully specified (residue 6); also: Lys6 acylated with group R, structure drawing only
notes: also called 4.12
B19: compound 14 (XL-14) (peptide)
peptide: KQTARK(4‑oxazolecarbonyl)STGG-NH2
notes: also called 4.14
B20: compound 15 (XL-15) (peptide)
peptide: KQTARKSTGG-NH2
modifications: not fully specified (residue 6); also: Lys6 acylated with group R, structure drawing only
notes: also called 4.15
B21: compound 16 (XL-16) (peptide)
peptide: KQTARKSTGG-NH2
modifications: not fully specified (residue 6); also: Lys6 acylated with group R, structure drawing only
notes: also called 4.16
B22: compound 25 (XL-07i) (peptide)
peptide: H-KQTARK(2Furoyl)-NH2
SMILES: C[C@H](NC(=O)[C@@H](NC(=O)[C@H](CCC(N)=O)NC(=O)[C@@H](N)CCCCN)[C@@H](C)O)C(=O)N[C@@H](CCCNC(=N)N)C(=O)N[C@@H](CCCCNC(=O)c1ccco1)C(N)=O
notes: also called 4.7i
B23: compound 2 (XL-02) (peptide)
peptide: KQTARKSTGG-NH2
modifications: not fully specified (residue 6); also: Lys6 acylated with group R, structure drawing only
notes: also called 4.2
B24: compound 86 (negative control), XL-17 (peptide)
peptide: KQTARK(cyclopentanecarbonyl)STGG-NH2
notes: also called 4.17
B25: compound 3 (XL-03) (peptide)
peptide: KQTARKSTGG-NH2
modifications: not fully specified (residue 6); also: Lys6 acylated with group R, structure drawing only
notes: also called 4.3
B26: compound 4 (XL-04) (peptide)
peptide: KQTARKSTGG-NH2
modifications: not fully specified (residue 6); also: Lys6 acylated with group R, structure drawing only
notes: also called 4.4
B27: compound 5 (XL-05) (peptide)
peptide: KQTARK(isonicotinoyl)STGG-NH2
notes: also called 4.5

Each binder was assayed against T1, AF9 YEATS domain, His-AF9 (1-138) (assay: ITC).
For B1, the “fold binding enhancement over the native crotonyl group (H3K9cr)” value was 4.5 fold.
With B2 the “fold binding enhancement over the native crotonyl group (H3K9cr)” value was 14.8 fold.
B3 was tested, and the Kd was 14800 nM.

Molecular target: T1, AF9 YEATS domain, His-AF9 (1-138)
Assay: ITC
Remark: another data set of the same source
In the case of B1, the Kd is reported as 3300 nM, the “N (sites)” value is reported as 0.91 sites and the ΔH is reported as -12.2 kcal/mol. For the same binder, the ΔS was -15.9 cal/mol/deg.
With B2 the Kd was 1000 nM, the “N (sites)” value was 1.04 sites and the ΔH was -12.3 kcal/mol. For the same binder, the ΔS was -13.8 cal/mol/deg.
B3 was tested, and the Kd was 14700 nM, the “N (sites)” value was 0.96 sites and the ΔH was -11.9 kcal/mol. The ΔS was -17.8 cal/mol/deg.

The binders below were run against T1, AF9 YEATS domain, His-AF9 (1-138) (assay: photo-cross-linking competition screen at 0.3 µM, in-gel fluorescence).
B4: binds.
B5: binds.

These binders were tested against T1, AF9 YEATS domain, His-AF9 (1-138) (assay: photo-cross-linking competition vs photoaffinity probe, in-gel fluorescence).
Binder B6 has an IC50 of 338 nM.
In the case of B7, the IC50 is reported as 315 nM.
B8 gave an IC50 of 715 nM.
Binder B9 has an IC50 of 778 nM.
With B10 the IC50 was 226 nM.
Work on B11 yielded an IC50 of 189 nM.

Molecular target: T1, AF9 YEATS domain, His-AF9 (1-138)
Assay: as above
Remark: another data set of the same source
Work on B12 yielded an IC50 of 3700 nM.
Work on B1 yielded an IC50 of 1300 nM.
B13 gave an IC50 of 4500 nM.
In the case of B6, the IC50 is reported as 340 nM.
In the case of B7, the IC50 is reported as 320 nM.
Work on B8 yielded an IC50 of 720 nM.
In the case of B9, the IC50 is reported as 780 nM.
B14 was tested, and the IC50 was 1700 nM.
In the case of B15, the IC50 is reported as 6500 nM.
In the case of B16, the IC50 is reported as 10600 nM.
For B17, the IC50 was 15700 nM.
In the case of B18, the IC50 is reported as 10400 nM.
B2 gave an IC50 of 740 nM.
With B19 the IC50 was 3000 nM.
With B20 the IC50 was 24500 nM.
Work on B21 yielded an IC50 of 12600 nM.
B22 showed an IC50 of 460 nM.
B10 was tested, and the IC50 was 230 nM.
Work on B23 yielded an IC50 of 29800 nM.
B3 was tested, and the IC50 was 6000 nM.
In the case of B24, the IC50 is reported as 34500 nM.
Binder B25 has an IC50 of 22100 nM.
B26 was tested, and the IC50 was 22200 nM.
With B27 the IC50 was 2100 nM.

The binders below were run against T2, ENL YEATS domain, His-SUMO-ENL (1-138) in the same assay as above.
In the case of B3, the IC50 is reported as 52700 nM.
